Results published in patent publication US20180155451A1 (published 2018).

T1: FcγRIIa H (FcγRIIa type H, His at position 131), extracellular domain with C-terminal His tag (human, UniProt P12318 34-217)
T1 construct: extracellular domain; Expressed in FreeStyle293 cells; analyte in the Biacore assay; also called FcgRIIa H; 2aH; not shown: His tag at the C terminus
T1 sequence (looked up): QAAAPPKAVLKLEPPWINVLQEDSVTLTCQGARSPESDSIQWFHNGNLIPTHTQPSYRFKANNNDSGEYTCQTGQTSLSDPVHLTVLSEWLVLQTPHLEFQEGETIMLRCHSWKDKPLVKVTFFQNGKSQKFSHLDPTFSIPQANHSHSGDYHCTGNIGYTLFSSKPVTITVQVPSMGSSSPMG


How the values were obtained:
[1] = target: T1, FcγRIIa H (FcγRIIa type H, His at …); assay: SPR Biacore; He/Con_2aH divided by He/Con_2b (reference: FcgRIIb)
[2] = target: T1, FcγRIIa H (FcγRIIa type H, His at …); assay: SPR Biacore, captured antibody, FcgR analyte; GpH7-A5/GpH7-B3/GpL16-k0 = 100
FcγRIa = target: T2, FcγRIa (human, UniProt P12314 16-292); assay: SPR (Biacore), antibody captured on antigen peptide chip, FcγRIa as analyte; relative binding amount
T2 construct: extracellular domain; also called FcgRI; CD64; not shown: C-terminal His tag
T2 sequence (P12314 16-292): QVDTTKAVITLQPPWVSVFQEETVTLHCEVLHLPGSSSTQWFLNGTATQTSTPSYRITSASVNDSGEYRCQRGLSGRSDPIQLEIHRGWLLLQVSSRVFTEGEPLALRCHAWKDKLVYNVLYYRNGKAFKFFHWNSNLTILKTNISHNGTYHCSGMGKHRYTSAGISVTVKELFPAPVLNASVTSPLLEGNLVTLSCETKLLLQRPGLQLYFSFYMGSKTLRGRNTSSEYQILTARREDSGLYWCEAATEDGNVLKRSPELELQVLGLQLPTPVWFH
Procedure: Analysis of interaction between objective antibody and the FcγR was carried out using Biacore T100 (GE Healthcare). HBS-EP+ (GE Healthcare) was used as the running buffer, and the measurement temperature was set to 25° C. Chips produced by immobilizing the antigen peptide by the amine coupling method to a Series S Sencor Chip CM5 (GE Healthcare), or alternatively, chips produced by allowing preliminarily biotinylated antigen peptides to interact with and immobilize onto a Series S Sensor Chip SA (certified) (GE Healthcare) were used. Antibodies of interest were captured onto an antigen peptide-immobilized chip, and allowed to interact to each FcγR diluted with running buffer. To regenerate and repeatedly use the chip, the antibodies captured on the chip were washed off by reacting 10 mM glycine-HCl, pH 1.5.

Binder	He_2aH/2b (IIaH/IIb) [1]	He/Con_2aH [2]	He/Con_1a (FcγRIa)
GpH7-A5/GpH7-B3 variant A327_12R/GpL16-k0 (antibody, human IgG1, kappa, He Ab; IgG1; mutation in one H chain only; also called He Ab) heavy 1: not shown heavy 2: not shown light: DIVMTQSPLSLPVTPGEPASISCQASESLVHSNRNTYLHWYLQKPGQSPQLLIYKVSNRFSGVPDRFSGSGSGTDFTLKISRVEAEDVGVYYCSQNTHVPPTFGQGTKVEIERTVAAPSVFIFPPSDEQLKSGTASVVCLLNNFYPREAKVQWKVDNALQSGNSQESVTEQDSKDSTYSLSSTLTLSKADYEKHKVYACEVTHQGLSSPVTKSFNRGEC	1.26	11.3 % of HeCon Ab	
GpH7-A5/GpH7-B3 variant Y300_02A/GpL16-k0 (antibody, human IgG1, kappa, heterodimerized IgG1; mutation in one H chain only; also called He Ab) heavy 1: not shown heavy 2: not shown light: DIVMTQSPLSLPVTPGEPASISCQASESLVHSNRNTYLHWYLQKPGQSPQLLIYKVSNRFSGVPDRFSGSGSGTDFTLKISRVEAEDVGVYYCSQNTHVPPTFGQGTKVEIERTVAAPSVFIFPPSDEQLKSGTASVVCLLNNFYPREAKVQWKVDNALQSGNSQESVTEQDSKDSTYSLSSTLTLSKADYEKHKVYACEVTHQGLSSPVTKSFNRGEC			112 % of control (GpH7-A5/GpH7-B3/GpL16-k0 = 100)
GpH7-A5/GpH7-B3 variant Y300_09D/GpL16-k0 (antibody, human IgG1, kappa, heterodimerized IgG1; mutation in one H chain only; also called He Ab) heavy 1: not shown heavy 2: not shown light: DIVMTQSPLSLPVTPGEPASISCQASESLVHSNRNTYLHWYLQKPGQSPQLLIYKVSNRFSGVPDRFSGSGSGTDFTLKISRVEAEDVGVYYCSQNTHVPPTFGQGTKVEIERTVAAPSVFIFPPSDEQLKSGTASVVCLLNNFYPREAKVQWKVDNALQSGNSQESVTEQDSKDSTYSLSSTLTLSKADYEKHKVYACEVTHQGLSSPVTKSFNRGEC			112 % of control (GpH7-A5/GpH7-B3/GpL16-k0 = 100)
GpH7-A5/GpH7-B3 variant Y300_20W/GpL16-k0 (antibody, human IgG1, kappa, heterodimerized IgG1; mutation in one H chain only; also called He Ab) heavy 1: not shown heavy 2: not shown light: DIVMTQSPLSLPVTPGEPASISCQASESLVHSNRNTYLHWYLQKPGQSPQLLIYKVSNRFSGVPDRFSGSGSGTDFTLKISRVEAEDVGVYYCSQNTHVPPTFGQGTKVEIERTVAAPSVFIFPPSDEQLKSGTASVVCLLNNFYPREAKVQWKVDNALQSGNSQESVTEQDSKDSTYSLSSTLTLSKADYEKHKVYACEVTHQGLSSPVTKSFNRGEC			112 % of control (GpH7-A5/GpH7-B3/GpL16-k0 = 100)
GpH7-A5/GpH7-B3 variant Y300_10E/GpL16-k0 (antibody, human IgG1, kappa, heterodimerized IgG1; mutation in one H chain only; also called He Ab) heavy 1: not shown heavy 2: not shown light: DIVMTQSPLSLPVTPGEPASISCQASESLVHSNRNTYLHWYLQKPGQSPQLLIYKVSNRFSGVPDRFSGSGSGTDFTLKISRVEAEDVGVYYCSQNTHVPPTFGQGTKVEIERTVAAPSVFIFPPSDEQLKSGTASVVCLLNNFYPREAKVQWKVDNALQSGNSQESVTEQDSKDSTYSLSSTLTLSKADYEKHKVYACEVTHQGLSSPVTKSFNRGEC			114 % of control (GpH7-A5/GpH7-B3/GpL16-k0 = 100)
GpH7-A5/GpH7-B3 variant Y300_03V/GpL16-k0 (antibody, human IgG1, kappa, heterodimerized IgG1; mutation in one H chain only; also called He Ab) heavy 1: not shown heavy 2: not shown light: DIVMTQSPLSLPVTPGEPASISCQASESLVHSNRNTYLHWYLQKPGQSPQLLIYKVSNRFSGVPDRFSGSGSGTDFTLKISRVEAEDVGVYYCSQNTHVPPTFGQGTKVEIERTVAAPSVFIFPPSDEQLKSGTASVVCLLNNFYPREAKVQWKVDNALQSGNSQESVTEQDSKDSTYSLSSTLTLSKADYEKHKVYACEVTHQGLSSPVTKSFNRGEC			117 % of control (GpH7-A5/GpH7-B3/GpL16-k0 = 100)
GpH7-A5/GpH7-B3 variant Y300_19Q/GpL16-k0 (antibody, human IgG1, kappa, heterodimerized IgG1; mutation in one H chain only; also called He Ab) heavy 1: not shown heavy 2: not shown light: DIVMTQSPLSLPVTPGEPASISCQASESLVHSNRNTYLHWYLQKPGQSPQLLIYKVSNRFSGVPDRFSGSGSGTDFTLKISRVEAEDVGVYYCSQNTHVPPTFGQGTKVEIERTVAAPSVFIFPPSDEQLKSGTASVVCLLNNFYPREAKVQWKVDNALQSGNSQESVTEQDSKDSTYSLSSTLTLSKADYEKHKVYACEVTHQGLSSPVTKSFNRGEC			112 % of control (GpH7-A5/GpH7-B3/GpL16-k0 = 100)
GpH7-A5/GpH7-B3 variant Y296_13S/GpL16-k0 (antibody, human IgG1, kappa, heterodimerized IgG1; mutation in one H chain only; also called He Ab) heavy 1: not shown heavy 2: not shown light: DIVMTQSPLSLPVTPGEPASISCQASESLVHSNRNTYLHWYLQKPGQSPQLLIYKVSNRFSGVPDRFSGSGSGTDFTLKISRVEAEDVGVYYCSQNTHVPPTFGQGTKVEIERTVAAPSVFIFPPSDEQLKSGTASVVCLLNNFYPREAKVQWKVDNALQSGNSQESVTEQDSKDSTYSLSSTLTLSKADYEKHKVYACEVTHQGLSSPVTKSFNRGEC			105 % of control (GpH7-A5/GpH7-B3/GpL16-k0 = 100)
GpH7-A5/GpH7-B3 variant Y300_06M/GpL16-k0 (antibody, human IgG1, kappa, heterodimerized IgG1; mutation in one H chain only; also called He Ab) heavy 1: not shown heavy 2: not shown light: DIVMTQSPLSLPVTPGEPASISCQASESLVHSNRNTYLHWYLQKPGQSPQLLIYKVSNRFSGVPDRFSGSGSGTDFTLKISRVEAEDVGVYYCSQNTHVPPTFGQGTKVEIERTVAAPSVFIFPPSDEQLKSGTASVVCLLNNFYPREAKVQWKVDNALQSGNSQESVTEQDSKDSTYSLSSTLTLSKADYEKHKVYACEVTHQGLSSPVTKSFNRGEC			112 % of control (GpH7-A5/GpH7-B3/GpL16-k0 = 100)
